Measured values reported in US11833164B2, “Methods of treating Fabry disease in patients having a mutation in the GLA gene” (Amicus Therapeutics, Inc., priority 2019, dated 2023).
Substitutions are numbered along the chain they refer to. Names may count otherwise.

B1: E178Q (protein)
chain: MQLRNPELHLGCALALRFLALVSWDIPGARALDNGLARTPTMGWLHWERFMCNLDCQEEPDSCISEKLFMEMAELMVSEGWKDAGYEYLCIDDCWMAPQRDSEGRLQADPQRFPHGIRQLANYVHSKGLKLGIYADVGNKTCAGFPGSFGYYDIDAQTFADWGVDLLKFDGCYCDSLQNLADGYKHMSLALNRTGRSIVYSCEWPLYMWPFQKPNYTEIRQYCNHWRNFADIDDSWKSIKSILDWTSFNQERIVDVAGPGGWNDPDMLVIGNFGLSWNQQVTQMALWAIMAAPLFMSNDLRHISPQAKALLQDKDVIAINQDPLGKQGYQLRQGDNFEVWERPLSGLAWAVAMINRQEIGGPRSYTIAVASLGKGVACNPACFITQLLPVKRKLGFYEWTSRLRSHINPTGTVLLQLENTMQMSLKDLL
B2: D182A (protein)
chain: B1 chain with Q178E, D182A
B3: D182V (protein)
chain: B1 chain with Q178E, D182V
B4: H186D (protein)
chain: B1 chain with Q178E, H186D
B5: K185N (protein)
chain: B1 chain with Q178E, K185N
B6: A181T (protein)
chain: B1 chain with Q178E, A181T
B7: L180M (protein)
chain: B1 chain with Q178E, L180M
B8: H186L (protein)
chain: B1 chain with Q178E, H186L
B9: H186N (protein)
chain: B1 chain with Q178E, H186N
B10: Y184F (protein)
chain: B1 chain with Q178E, Y184F
B11: A181V (protein)
chain: B1 chain with Q178E, A181V
B12: Y184H (protein)
chain: B1 chain with Q178E, Y184H
B13: D182E (protein)
chain: B1 chain with Q178E, D182E
B14: Y184S (protein)
chain: B1 chain with Q178E, Y184S
B15: K185T (protein)
chain: B1 chain with Q178E, K185T
B16: H186Q (protein)
chain: B1 chain with Q178E, H186Q
B17: L180S (protein)
chain: B1 chain with Q178E, L180S
B18: A181P (protein)
chain: B1 chain with Q178E, A181P
B19: K185Q (protein)
chain: B1 chain with Q178E, K185Q
B20: D182Y (protein)
chain: B1 chain with Q178E, D182Y
B21: K185M (protein)
chain: B1 chain with Q178E, K185M

System: mutant form of α-Gal A expressed in HEK-293 cells
Assay: HEK assay (GLP HEK / Migalastat Amenability Assay): α-Gal A activity in lysates of transiently transfected HEK-293 cells incubated with or without 10 μM migalastat
Assay type: cell-based, human
Details: for Absolute increase (% WT): 10 μM migalastat versus baseline; for Relative increase: 10 μM migalastat α-Gal A activity relative to baseline; for 10 μM migalastat α-Gal A activity (% WT): 5 days; for 10 μM migalastat α-Gal A activity (% WT) / Baseline α-Gal A activity (% WT): percentage of baseline wild-type α-Gal A activity; for 10 μM migalastat α-Gal A activity (% WT) / Baseline α-Gal A activity (% WT) / Baseline α-Gal A activity / 10 μM migalastat α-Gal A activity: mean ± SEM; for Baseline α-Gal A activity (% WT): absence of migalastat; for Baseline α-Gal A activity / 10 μM migalastat α-Gal A activity: lysates of HEK-293 cells transfected with the mutant form; for Baseline α-Gal A activity: incubated 5 days in the absence of migalastat; for 10 μM migalastat α-Gal A activity: incubated 5 days with 10 μM migalastat
Method in brief: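 HEK-293 cells transiently transfected with mutant α-Gal A and incubated with or without 10 μM migalastat; lysate activity given as nmol free 4-MU released per mg protein per hour. Values are mean±SEM.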

Row | Molecule | Absolute increase (% WT) | Relative increase | 10 μM migalastat α-Gal A activity (% WT) | Baseline α-Gal A activity (% WT) | Baseline α-Gal A activity | 10 μM migalastat α-Gal A activity
1 | B1 | 18.3 % WT | 1.3 | 86.4 ± 5 % WT | 68.1 ± 4.5 % WT | 23272 ± 1501 nmol/mg/h | 29671 ± 1733 nmol/mg/h
2 | B2 | 31.8 % WT | 1.3 | 133.3 ± 8.2 % WT | 101.5 ± 5.7 % WT | 33673 ± 2886 nmol/mg/h | 44436 ± 3828 nmol/mg/h
3 | B3 | 44.7 % WT | 1.6 | 124.8 ± 6.9 % WT | 80.2 ± 4.2 % WT | 26881 ± 2166 nmol/mg/h | 42107 ± 3524 nmol/mg/h
4 | B4 | 18.2 % WT | 1.3 | 78.2 ± 5.2 % WT | 60 ± 4.1 % WT | 26924 ± 2047 nmol/mg/h | 34055 ± 1657 nmol/mg/h
5 | B5 | 22.5 % WT | 12.7 | 24.4 ± 1.9 % WT | 1.9 ± 0.1 % WT | 833 ± 38 nmol/mg/h | 10540 ± 618 nmol/mg/h
6 | B6 | 19.2 % WT | 1.4 | 71.3 ± 4.6 % WT | 52.1 ± 2.7 % WT | 17946 ± 1002 nmol/mg/h | 24490 ± 1576 nmol/mg/h
7 | B7 | 29.5 % WT | 1.3 | 122.9 ± 5.5 % WT | 93.4 ± 6.6 % WT | 35987 ± 2266 nmol/mg/h | 47587 ± 2132 nmol/mg/h
8 | B8 | 27.1 % WT | 1.3 | 97.5 ± 8.2 % WT | 70.4 ± 3.4 % WT | 31615 ± 1833 nmol/mg/h | 42145 ± 2540 nmol/mg/h
9 | B9 | 26.8 % WT | 1.4 | 90.3 ± 5.8 % WT | 63.5 ± 3.1 % WT | 28175 ± 1462 nmol/mg/h | 39509 ± 1885 nmol/mg/h
10 | B10 | 31.8 % WT | 1.4 | 109.7 ± 5.8 % WT | 77.9 ± 4.4 % WT | 26088 ± 1334 nmol/mg/h | 36815 ± 2009 nmol/mg/h
11 | B11 | 14.2 % WT | 1.2 | 93.2 ± 5.3 % WT | 79.1 ± 3.5 % WT | 26667 ± 1945 nmol/mg/h | 32358 ± 2863 nmol/mg/h
12 | B12 | 18.4 % WT | 1.6 | 48.6 ± 3.5 % WT | 30.2 ± 2.9 % WT | 10980 ± 867 nmol/mg/h | 17894 ± 1145 nmol/mg/h
13 | B13 | 32.3 % WT | 1.4 | 117.1 ± 4.5 % WT | 84.8 ± 4 % WT | 28082 ± 2023 nmol/mg/h | 38956 ± 2806 nmol/mg/h
14 | B14 | 25.2 % WT | 2.7 | 40.6 ± 1.6 % WT | 15.4 ± 1 % WT | 5213 ± 371 nmol/mg/h | 13965 ± 799 nmol/mg/h
15 | B15 | 19.0 % WT | 1.2 | 92.6 ± 7.8 % WT | 73.6 ± 4.4 % WT | 32028 ± 1167 nmol/mg/h | 39805 ± 2259 nmol/mg/h
16 | B16 | 28.5 % WT | 1.4 | 105.3 ± 7 % WT | 76.9 ± 4.3 % WT | 28845 ± 2365 nmol/mg/h | 38865 ± 2966 nmol/mg/h
17 | B17 | 35.5 % WT | 3.3 | 50.9 ± 2.3 % WT | 15.4 ± 1.5 % WT | 5625 ± 604 nmol/mg/h | 18335 ± 964 nmol/mg/h
18 | B18 | 29.8 % WT | 1.9 | 61.5 ± 3.3 % WT | 31.7 ± 2 % WT | 10948 ± 725 nmol/mg/h | 21274 ± 1279 nmol/mg/h
19 | B19 | 30.9 % WT | 1.7 | 74.5 ± 2.9 % WT | 43.6 ± 2.2 % WT | 14992 ± 947 nmol/mg/h | 25543 ± 1463 nmol/mg/h
20 | B20 | 31.9 % WT | 1.4 | 116.5 ± 6.4 % WT | 84.7 ± 4.1 % WT | 28377 ± 2226 nmol/mg/h | 39247 ± 3250 nmol/mg/h
21 | B21 | 27.8 % WT | 1.3 | 102.9 ± 9 % WT | 75.1 ± 4.6 % WT | 33484 ± 2151 nmol/mg/h | 44387 ± 2696 nmol/mg/h
